Data on ten molecules can be found in patent publication US20140056903A1 (Regeneron, published 2014).

By IC50 is commonly meant the midpoint of a concentration-inhibition curve.

Sequences and labels used below:
B1: H4H2364S (antibody, human IgG4, V domains shown)
VH: EVQLVESGGGLEQPGGSLRLSCAASGFTFSSYVMSWVRQVPGKGLEWVSVISGSGGSTYYADSVKGRFTISRDNSKNTLYLQMNSLRAEDTAVYYCAKPSSYSSSNFHYGMDVWGQGTTVTVSS
VL: DIQMTQSPYSVSASVGDRVTITCRASQGISSWLAWYQQKPGRAPKLLIYAASSLQSGVPSRFSGSGSGTDFTLTISSLQPEDFATYYCQKTNSFPFTFGPGTKVEIK
notes: human IgG4 Fc (H4H)
B2: H4H2344S (antibody, human IgG4, V domains shown)
VH: EVQLVESGGGVVQPGRSLRLSCAASGFSFSDYVMHWVRQAPGKGLEWVASIWFDGSNEFYADSVKGRFTISRDNSKNTLFLQMNSLRAEDTAVYYCAKKGVLVATSAFDIWGQGTMVTVSS
VL: DIQMTQSPSSLSASVGDRVTITCRASQSINNYLNWYHQKPGKAPKLLIYAASSLQSGVPSRFSGSGSGTDYTLTISSLQPEDFGNYYCQQSYRTSMYTFGQGTKVEIK
notes: human IgG4 Fc (H4H)
B3: H4H2346S (antibody, human IgG4, V domains shown)
VH: B2 VH with E1Q
VL: B2 VL with D1E, Q3V
notes: human IgG4 Fc (H4H)
B4: H4H2293P (antibody, human IgG4, V domains shown)
VH: B2 VH with E1Q, F59L, D109H
VL: B2 VL with D1A, S28N, K45N, R93S, V105L
notes: human IgG4 Fc (H4H)
B5: H4H2354S (antibody, human IgG4, V domains shown)
VH: B2 VH with E1Q
VL: B2 VL with M4L
notes: human IgG4 Fc (H4H); also called H4H2354S-1
B6: H4H2345S (antibody, human IgG4, V domains shown)
VH: EVQLVESGGGLVRPGRSLRLSCAASGFTFDNYAMHWVRQVPGKGLEWVSGITWNSVSLGYADSVKGRFTISRDNAQNSLYLQMNSLRTVDTALYYCAKDRWGGSYYFDFWGQGTLVTVSS
VL: DIVMTQSPSSLSASVGDRVTITCRASQGISNYLAWYQQKPGKVPKLLIYSASTLQSGVPSRFSGSGSGTDFTLTISNLQPEDFATFFCQKYNSAPTFGGGTKVEIK
notes: human IgG4 Fc (H4H)
B7: H4H2236N3 (antibody, human IgG4, V domains shown)
VH: EVQLLESGGNLVQPGGSLRLSCAASGFTFSSYAMTWVRQAPGKGLEWVSTISGSGTSTYYADSVKGRFTISRDNSRDTVFLQMNSLRAEDTAVYYCSKPSALRFLHWLAMDVWGQGTLVTVSS
VL: DIQMTQSPSSLSAFVGDRVTITCRASQDIRNYLDWFQQKPGKAPKSLIYAASNLQSGVPSRFGGSGSGTDFTLTINSLQPEDFVTYYCQQYNSYPPTFGGGTKVEIK
notes: human IgG4 Fc (H4H)
B8: H4H2341S (antibody, human IgG4, V domains shown)
VH: EVQLVESGAEVKKSGSSVKVSCKASGGTFSRYAISWVRQAPGQGLEWMGGIIPLFGTLNYAQKFQGRVTLTTDESTSTAYMELSSLRSEDTAVYYCAVFYYGSGSYRNWFDPWGQGTLVTVSS
VL: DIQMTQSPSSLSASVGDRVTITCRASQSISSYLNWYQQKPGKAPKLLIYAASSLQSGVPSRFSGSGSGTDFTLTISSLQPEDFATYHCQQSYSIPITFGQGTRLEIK
notes: human IgG4 Fc (H4H)
B9: H4H2294S (antibody, human IgG4, V domains shown)
VH: B1 VH with E12V, V33A, V40A, S63A, N77H, A97T, H108Y, T118S
VL: B1 VL with M4L, Y9S, R42K, K90Q, T97P, E105D
notes: human IgG4 Fc (H4H)
B10: H4H2350P (antibody, human IgG4, V domains shown)
VH: QVQLQESGPGLVKPSETLSLTCTVSGGSISTYYWSWFRQPPGKGLEWIGYIYYSGSTNHNPSLKSRVTISVDTSKNQFSLKLRSVTAADTAVYYCARVGPVGWGSWGNFDYWGQGTLVTVSS
VL: DIQLTQSPSFLSASVGDRVTITCWASQGISSYLAWSQQKPGKAPKLLIYAASTLQSGVPSRFSGSGSGTEFTLTISSLQPEDFATYYCQQLNSYPWTFGQGTKVEIK
notes: human IgG4 Fc (H4H)

Positions count from the first letter of the chain named. Names and notes keep the numbering of the source.

For the first assay, the target named is T1, human GFRα3 on HEK293/hGFRα3/hRET/SRE-luc cells (human, UniProt O60609 32-382).
T1 sequence: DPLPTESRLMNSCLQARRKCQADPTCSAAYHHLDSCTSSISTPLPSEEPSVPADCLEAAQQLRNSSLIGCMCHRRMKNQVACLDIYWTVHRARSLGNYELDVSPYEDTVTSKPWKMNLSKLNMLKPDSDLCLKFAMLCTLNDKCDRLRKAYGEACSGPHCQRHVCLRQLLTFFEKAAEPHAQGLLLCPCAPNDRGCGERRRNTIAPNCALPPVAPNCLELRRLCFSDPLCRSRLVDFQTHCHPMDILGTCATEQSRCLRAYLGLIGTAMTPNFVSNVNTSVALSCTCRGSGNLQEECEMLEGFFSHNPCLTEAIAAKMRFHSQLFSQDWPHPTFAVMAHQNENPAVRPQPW
The assay is described as follows: cell-based or functional assay.
On to B1, for which the “IC50 (SRE-luc, HEK293/hGFRα3/hRET cells, 100 pM hARTEMIN-mmH)” value is 2.3 nM.

For the molecule B2, the “IC50 (SRE-luc, HEK293/hGFRα3/hRET cells, 100 pM hARTEMIN-mmH)” value stood at 48 nM.

B3: the “IC50 (SRE-luc, HEK293/hGFRα3/hRET cells, 100 pM hARTEMIN-mmH)” value turned out to be 26 nM.

B4: the “IC50 (SRE-luc, HEK293/hGFRα3/hRET cells, 100 pM hARTEMIN-mmH)” value is 20 nM.

For B5, the “IC50 (SRE-luc, HEK293/hGFRα3/hRET cells, 100 pM hARTEMIN-mmH)” value is 22 nM.

Take B6: the “IC50 (SRE-luc, HEK293/hGFRα3/hRET cells, 100 pM hARTEMIN-mmH)” value was found to be 26 nM.

With B7, the “IC50 (SRE-luc, HEK293/hGFRα3/hRET cells, 100 pM hARTEMIN-mmH)” value came to 1.5 nM.

As for B8, the “IC50 (SRE-luc, HEK293/hGFRα3/hRET cells, 100 pM hARTEMIN-mmH)” value is 7.1 nM.

A further assay deals with T2, human GFRα3 expressed with a C-terminal myc-myc-hexahistidine tag (human, UniProt O60609 32-374, biotinylated (sites not given) in ELISA format 2 and in the Octet cross-competition; not in SPR).
T2 construct: also called hGFRα3-mmh; hGFRα3-mmH
The assay is described as follows: blocking ELISA 2, biotin-hGFRα3-mmH to coated hARTEMIN-mmH + hRET-10His. Here is the method: The equilibrated sample solutions were then transferred to the hARTEMIN-mmH-coated plate. […] Absorbance was recorded at 450 nm on a Victor X5 plate reader (Perkin Elmer) to determine the amount of free hGFRα3-hFc in the pre-equilibrated hGFRα3-hFc-antibody solutions that was able to bind to the plate coated with hARTEMIN-mmH. IC₅₀ values, defined as the concentration of antibody required to reduce the signal from a constant concentration of hGFRα3-hFc by 50%, were calculated from the data using Prism software from GraphPad. The absorbance measured at the constant amount of 120 pM hGFRα3-hFc in the absence of anti-GFRα3 antibody is defined as 0% blocking and the absorbance with no added hGFRα3-hFc is defined as 100% blocking. The observed absorbance in the wells containing the highest antibody concentration was used to calculate the maximum blocking percent shown in the table.
In the second ELISA format, the plates, samples and data were processed similarly as for the first format except both hARTEMIN-mmH and human RET with a C-terminal 10 histidine tag (hRET-10His; R&D Systems, #1168-CR/CF) were coated for the blocking ELISA experiment. The 96-well microtiter plates were coated with a mixture of 1.2 ug/ml hARTEMIN-mmH and 6.9 ug/ml hRET-10His proteins in PBS overnight at 4° C. and then blocked with a solution of 0.5% (w/v) BSA. A constant amount of biotinylated human GFRα3 with a C-terminal myc-myc-hexahistidine tag (biotin-hGFRα3-mmH; SEQ ID:370) at 1 nM was pre-mixed with varied amounts of anti-GFRα3 antibodies, ranging from 0 to ˜100 nM in serial dilutions, followed by a 1 hour incubation at RT to allow antibody-biotin-hGFRα3-mmH binding to reach equilibrium. The equilibrated samples were then transferred to the coated plate. After 1 hour of binding, the plate was washed, then the bound biotin-hGFRα3-mmH was detected using HRP conjugated streptavidin (Pierce, #N200), and colorimetric signals were developed using TMB HRP substrates.
For the molecule B9, the “% max blocking” value came out at 95% and the concentration for half-maximal inhibition (IC50) worked out at 0.952 nM.

Regarding B1, the “% max blocking” value is 100% and the IC50 amounted to 1.45 nM.

As for B10, the “% max blocking” value was 91% and the 50% inhibitory concentration (IC50) amounted to 1.29 nM.

B2: the “% max blocking” value was determined as 100% and the half-inhibitory concentration (IC50) came out at 0.459 nM.

In the case of B3, the “% max blocking” value turned out to be 99% and the half-inhibitory concentration (IC50) is 0.797 nM.

Turning to B4, the “% max blocking” value came out at 95% and the IC50 worked out at 7.38 nM.

Turning to B5, the “% max blocking” value came out at 97% and the half-maximal inhibitory concentration (IC50) came to 1.32 nM.

Turning to B6, the “% max blocking” value came to 75% and the IC50 came to 14.6 nM.

For B8, the “% max blocking” value came out at 98% and the IC50 amounted to 1.62 nM.

The target of another assay is T2, human GFRα3 expressed with a C-terminal …. The assay is described as follows: Octet RED384; 25 µg/mL first antibody on streptavidin-captured biotin-hGFRα3-mmH. Here is the method: (§1) A cross-competition assay was conducted to assess the ability of select antibodies to compete with one another for binding to human GFRα3 using an Octet RED384 biosensor (Fortebio Inc.). The entire experiment was performed at 25° C. with the flow rate of 1000 rpm in Octet HBST buffer (0.01 M HEPES pH7.4, 0.15M NaCl, 3 mM EDTA, 0.05% v/v Surfactant P20, 0.1 mg/mL BSA). To assess whether 2 antibodies were able to compete with one another for binding to their respective epitopes on biotinylated recombinant human GFRα3 expressed with a C-terminal myc-myc-hexahistidine tag (biotin-hGFRα3-mmH; SEQ ID:370), around ˜1.2 nm of biotin-hGFRα3-mmH was first captured onto streptavidin-coated Octet sensor tips (Fortebio Inc, #18-5019) by submerging the tips for 1 minute into a 10 μg/mL solution of biotin-hGFRα3-mmH. The antigen coated sensor tips were then placed into wells containing 25 μg/mL solution of a first anti-GFRα3 monoclonal antibody for 4 minutes to saturate the biotin-hGFRα3-mmH surface. The sensor tips were then subsequently dipped into wells containing 25 μ/mL solution of a second anti-GFRα3 monoclonal antibody. The sensor tips were washed in Octet HBST buffer in between every step of the experiment. The real-time binding response was monitored during the course of the experiment and the binding response at the end of every step was recorded as shown in FIG. 9. The response of mAb-2 binding to biotin-hGFRα3-mmH pre-complexed with the first antibody was compared and competitive/non-competitive behavior of different anti-GFRα3 monoclonal antibodies was determined.
In general terms: BLI is a label-free optical method that tracks binding on a fibre tip over time.
Target sequence in this assay (O60609 other isoform, or with tags, fused parts or gaps limits assumed): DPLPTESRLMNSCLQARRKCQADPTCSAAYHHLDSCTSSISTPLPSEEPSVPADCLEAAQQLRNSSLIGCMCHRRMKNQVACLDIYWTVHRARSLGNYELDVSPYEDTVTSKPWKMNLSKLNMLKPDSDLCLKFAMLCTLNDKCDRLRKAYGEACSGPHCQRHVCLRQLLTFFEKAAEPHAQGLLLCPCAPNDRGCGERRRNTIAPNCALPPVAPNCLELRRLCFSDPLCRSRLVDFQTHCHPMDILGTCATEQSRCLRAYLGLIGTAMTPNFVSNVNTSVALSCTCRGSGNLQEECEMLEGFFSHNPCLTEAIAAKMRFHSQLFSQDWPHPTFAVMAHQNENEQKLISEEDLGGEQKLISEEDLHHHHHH
Take B9: the “Amount of Antibody 1 bound (nm)” value was 2.91 nm.

For the molecule B10, the “Amount of Antibody 1 bound (nm)” value was determined as 3.31 nm.

B7: the “Amount of Antibody 1 bound (nm)” value came to 2.64 nm.

For another assay the target is unchanged. The assay is described as follows: Octet cross-competition; biotin-hGFRα3-mmH pre-saturated with first antibody H4H2291S. Here is the method: as §1
Target sequence in this assay (O60609 other isoform, or with tags, fused parts or gaps limits assumed): as above
For B9, the “binding response of second antibody (nm)” value worked out at 0 nm.

Regarding B10, the “binding response of second antibody (nm)” value turned out to be 1.44 nm.

As for B7, the “binding response of second antibody (nm)” value is 0.01 nm.

The target is the same in a further assay. The assay is described as follows: Octet cross-competition; biotin-hGFRα3-mmH pre-saturated with first antibody H4H2295S. As to the method: as §1
Target sequence in this assay (O60609 other isoform, or with tags, fused parts or gaps limits assumed): as above
Turning to B9, the “binding response of second antibody (nm)” value was determined as 0.02 nm.

Regarding B10, the “binding response of second antibody (nm)” value was found to be 1.35 nm.

Take B7: the “binding response of second antibody (nm)” value worked out at 0.01 nm.

Another assay has the same target. The assay can be described thus: Octet cross-competition; biotin-hGFRα3-mmH pre-saturated with first antibody H4H2212N. As to the method:
as §1
Target sequence in this assay (O60609 other isoform, or with tags, fused parts or gaps limits assumed): as above
With B9, the “binding response of second antibody (nm)” value turned out to be 2.12 nm.

In the case of B10, the “binding response of second antibody (nm)” value stood at 1.36 nm.

Consider B7, for which the “binding response of second antibody (nm)” value came to 2.14 nm.

The target is the same in another assay. The assay is described as follows: Octet cross-competition; biotin-hGFRα3-mmH pre-saturated with first antibody H4H2352S. Here is the method:
as §1
Target sequence in this assay (O60609 other isoform, or with tags, fused parts or gaps limits assumed): as above
B9: the “binding response of second antibody (nm)” value was 2.25 nm.

Consider B10, for which the “binding response of second antibody (nm)” value amounted to 1.43 nm.

Regarding B7, the “binding response of second antibody (nm)” value worked out at 2.15 nm.
